Test results reported in a protein production outcome set (Wang et al. 2014).

assay: label from the status in PepcDB records

Row | Sequence | protein production
1 | MALLMSVKRQLYLWHRWLGIVACLFMALWFVSGVVMLYVGYPKLTPAERLAHLPALPAGCCAELPEHWAQQPLKALRLTSLGGRAHHLLELADGRRVILDAASGEPLARADAAWALANARQYAGEAGLAYLGTVDEDMWTHSRALDGDRPLHHVQVDDTAGTWLYLSSRTGEVVRDATAQERAWNWVGAWLHWLYPLRGGFGFDNGWRTLVIGLSLGATVMALLGMTVGILRLRLRKRYRSGSCSPYPGGWLRWHHIGGLLFGTVLVLWVFSGLMSMRPWGVTDSRSQLAPQALRQGPLRAMDIGQTVAQAMASLGREPGFNPVEIQWQRLGGDTFLVARNAAGDSRILEAGAPPARALSEQRLLTAARAMAAGVVVQANWQGHYDAYYFTRDAQSMYGFQSRPLPVLRLRFDDPASTWVYLDPASAEVVASHDARQRAGRWLFNLLHSWDLQPLLQRPVLREGLIIALSIGGLVVSLSGVVLGWRRLRRMTARVRG | failed
2 | MALMTMVQALNRALDEEMAKDPRVVVLGEDVGKRGGVFLVTEGLLQKYGPDRVMDTPLSEAAIVGAALGMAAHGLRPVAEIQFADYIFPGFDQLVSQVAKLRYRSGGQFTAPLVVRMPSGGGVRGGHHHSQSPEAHFVHTAGLKVVAVSTPYDAKGLLKAAIRDEDPVVFLEPKRLYRSVKEEVPEEDYTLPIGKAALRREGKDLTLIGYGTVMPEVLQAAAELAKAGVSAEVLDLRTLMPWDYEAVMNSVAKTGRVVLVSDAPRHASFVSEVAATIAEDLLDMLLAPPIRVTGFDTPYPYAQDKLYLPTVTRILNAAKRALDY | not failed
3 | MALPRSEDGLVLMWSGGKDAMLALDVLHSQSPRRVGALLTTVTADEERVTMHGTPLSLVERQADALNVPLHVMRVPPQPPNEVYEARLEAALTPLLENGFSTVVAGDLFLDDVRAYREALIESVGATALFPLWGRDTTWLAQRFSTRGYRAVVTAVDTTQLDSSFVGRTYDDSFLEDLPDAVDPCGEKGAFHTFVSDGPPFAASVPVAETGRDTTGRIHTVRLRATGEEA | failed
4 | MALRLAVPAMTAQLPPGVTHVDCSTLDMPNAYVVVDDNETTLVDAGWPGDEQTVRDGLHTAGVEPGDIDRVLVTHYDADHVGTLARLTPALDAPVYVHERDAPYVAGDRLPPWTARNGIGALHRLYYRRLDLPDLPIRAVVDGDDIGGFHAYHTPGHTPGHVAYVHEDLSVAFLGDLAYGLGDRLKPTGWLTSSDAAAVESSVRSLCRRAPAFEYACPGHGPPLPDGDDRLAEALP | failed
5 | MALSSAPILITGASQRVGLHCALRLLEHGHQVIISYRTEHASVAQLRQAGAHTLHGDFSSEASIMAFIEQLKSHTSSLRAIVHNASEWLAETPGDEAENFTRMFSVHMLAPYLINLHCEALLHASDVADIVHISDDVTRKGSSKHIAYCATKAGLESLTLSFAARFAPLVKVNGIAPALLMFQPKDDAAYRANALAKSAMGIEPGAEVIYQSLRYLLDSTYVTGTTLTVNGGRHVK | failed
6 | MALSTEKKVGFFFMAGLVVLGVMLELGERWNPFEKNLPYVTYLSSTTGLKVGDPVRLAGVEVGKITRIDIEDGRVKVGFEVKPGTRIKTDSVATIRLTNLLGGQFLGISFGTQTADILAPGSEVKSREIANIDIIVDNVSDLTKDARTFLNDLNTNQNEVLGKISTMLDENRGNLKGAVQNLNSITAKMDRGEGSLAMLLNDKALYQNTNELATSLKTVTGKIERGEGSLGKLVNEDALYVEAKGALAELNAGAKDIKEIAAKINKGEGSVGKLVHDEALYNELRDASKNISDVARKINEGQGTLGKLVNDDKLYRDTAAAMKKLDKAADGLSDSGPISVLGSVVGTLF | failed
7 | MALTFYQYPKCGTCQKAKKWLDQHGIEVNSVHIVEQPPSKEELKQLYEQSGLELKKFFNTSGKKYRELGLKDKVKEASEDELLETLASDGMLIKRPILTDGDKVTVGFKEAEYEETWKK | failed
8 | MALVLVKYGTDHPVEKLKIRSAKAEDKIVLIQNGVFWALEELETPAKVYAIKDDFLARGYSEEDSKVPLITYSEFIDLLEGEEKFIG | not failed
9 | MALYWNLRLSVKNWRSIQNNEKLIFQVLWPLKLLVALKFISTLEERLIIPESDKPHTPPEGRLPDATKGFDLLRDVFAKRMGLSDKDIVALSGSHTPISPSQS | failed
10 | MAMADVTIRGAGIFGLSIAWACVLRGARVQVVDPFGPGAGSSGGLVGALAPHVPENWNAKKAFQFDSLIMAEGFWAGVEAAGGVSPGYGRTGRIQPLADERAVDLADERAENARTLWQGQAEWRVCPVDEMGSWCPPSPTGLVVHDTLSARMHPRRACAALVGALAVRGVEVLAEAPDRGQVIHATGIAGLEELNRARGRLVGTGVKGQAALLRFDAGRQAPQLFADTVHIVPHADGTLAIGSTSERDYDDPTSTDAALDTVLDRAMQAVPLLHGAEVIERWAGVRPRSRSRAPMLGAHPLYPDQFIANGGFKIGFGMAPKVAHVMAELVLEGQDNIPQDFRPEASL | failed
11 | MAMGRTTQFTLDEVAKHADKDSCWLVIDGKVYAVEKFLNEHPGGEDVLLETAGRDATREFEDVGHSKSAREQLKEFYIGDVREPTAEELAAKRAVQASAAAERRDGDGVRANGLGKERLFAGGAFGAEPLSGGSSTWTLLKRLFVPVCIAVLVYLVREYSKQVQTGG | not failed
12 | MAMLQTNLGFITSPTFLCPKLKVKLNSYLWFSYRSQGNFSYSLYTFKPMNLWFVQKLDFSKRVNRSYKRDALLLSIKCSSSTGFDNSNAVNSNVVVKEKSVSVILLAGGQGKRMKLCFWLRDVPKISLSLFLFCGVLEYEESIDVDLRFAIPGKERQDSVYSGLQEIDVNSELVCIHDSARPLVNTEDVEKVLKDGSAVGAAVLGVPAKATIKEVIKPELLKKGFELVKSEGLEVTDDVSIVEYLKHPVYVSQGSYTNIKVTTPDDLLLAERILSEDS | failed
13 | MANAKPVCSLFHSTFHDGIASVFHRSFSFPLLLILLIAFSGSGYANSSKETRAAARSESAGKTVSSRWAKGRLLVIPRAGLTAMEFDKATKPYGVKSRRRLNGLNAHVYELPDGVDEVKVLDKLKKDRRFKAVELDRLVEPAQVVTDPAFGNSWALPKIQAPAAWDIATGDGITIAILDTGVDGTHPDLAANMLPGWNAYDNNTDTSDIYGHGTKVAGTAAAVANNGAGSSGLAWNARILPVRISMPDGRAYLSDMAKGIRWAADNGARIANISYGGAESLTVQSAANYMRSKGGVVVMSAGNSGGLNNFPASNAIIVASATDSKDARASWSSYGPYVDVAAPGVSIYTTIRGGGYGYVSGTSFSSPIVAAAAALLFSINPDLAPTDIDQMLTATAQDLGNAGYDQYYGHGRINAASAVNAAHARISVDRTAPLISIASPTGGTVSGSVPVDVNYSDNKGVVRVDLYVNGRKTIEDTQPPFAFAWDTTTLANGSYTLVAYAFDAAGNQGTSSTVNVTVKNTVADTTPPTISITSPAGGAVVLGSVPVNVNSSDNIGVVRTELHVNGKKVMEGTGSSFVWDTKSLADGNYTLVAYAFDAAGNQGASSPVAVSVKNTGTTTNTEPLPQINSFNLRDGQNVSRNQNIRVTADRNTRKINLKINGGIIAAANGNSLSYRWNTSAIPKNSNITVTAEAFNAKGDATSRTVTVRN | failed
14 | MANEDCPKAADSPFSSDKHAQLILAQINKMRNGQHFCDVQLQVGQESFKAHRLVLAASSPYFAALFTGGMKESSKDVVPILGIEAGIFQILLDFIYTGIVNIGVNNVQELIIAADMLQLTEVVHLCCEFLKGQIDPLNCIGIFQFSEQIACHDLLEFSENYIHVHFLEVHSGEEFLALTKDQLIKILRSEELSIEDEYQVFLAAMQWILKDLGKRRKHVVEVLDPIRFPLLPPQRLLKYIEGVSDFNLRVALQTLLKEYCEVCKSPKENKFCSFLQTSKVRPRKKARKYLYAVGGYTRLQGGRWSDSRALSCVERFDTFSQYWTTVSSLHQARSGLGVTVLGGMVYAIGGEKDSMIFDCTECYDPVTKQWTTVASMNHPRCGLGVCVCYGAIYALGGWVGAEIGNTIERFDPDENKWEVVGNMAVSRYYFGCCEMQGLIYVIGGISNEGIELRSFEVYDPLSKRWSPLPPMGTRRAYLGVAALNDCIYSVGGWNETQDALHTVEKYSFEEEKWVEVASMKVPRAGMCVVAVNGLLYVSGGRSSSHDFLAPGTLDSVEVYNPHSDTWTEIGNMITSRCEGGVAVL | failed
15 | MANGRIEKIGQQLTTPSGYQVLDATGKHVTAGIVDEHSHIAINGGTNEGTDAVTAEVRIGDVINPEDVSIYRALAGGVTSAQLLHGSANPIGGQSQLIKMKWGESAEQLKFANAPASIKFALGENVKQSNWGEKFVQRFPQTRMGVKALFEETFDAALAYENALKDYDDLRSSEKKKTLAPRPSYRLQAVAEVLKQQRDVHIHSYVQSEILMFLRLAEAYRFKVQTFTHVLEGYKVASELAAHGAGASTFADWWAYKFEVYDAIPQNACLMQKQGVLTSINSDDYEMQRRLNQEAAKSMMYCGMSKEDAWNMVTIYPAKQLRVDEYVGSLTPGKMADIVLWNAEPLSIYAKVTHAWVEGKRYFDREQDQLAQQQVVTERAALIQKILSSDDNAKAGEKVTPLNEPQWHCDTHYQAWGQHHQGAK | failed
16 | MANITFSSPVMAKDVTVYAVAGDRGTILAVAKSHSIPIPFDCQDGECGSCLVQVEHFNPKAKAAVALTEKEKEVLRQLGKITKEEIVDAEVNDIPPRYRLACQCFVRNEDILVKFEGDKTKPQRLAVTPAAAHYKGGMEINTPQEFFSYAAKVEEDAALHYDSLAKAMADAGNAPVAKLFAQLAEFSRLHLAEVKSRAGSIDLSKSVPPDYAWPDHATPERAAVWASDTTLTRLGALKAALQGERRGYEFYRAVEATTKSSEVAAAAKEFVNEEAEHVRILEAWITQEEWSLKHAAKAAENA | failed
17 | MANKKIDHREEAIELLKQDAKRILQLIKVQMDNLTLPQCPAYEEVLDTQMYGLSREINFATRLGLIEPEEGKKLISTLEKELSALHELSMSKK | not failed
18 | MANKKNKVKFNICNVHYAPITVADEGKVSFGTPVAMPGAVSISMDPTGEPESFYADGIEYYVINNNQGYDGDLELAMIPETFRTDILKEEADSNNVLVENANSETGSFALLFEFDGDIRKIRHVLYNCSASRPTIESKTNEEDKEVQTETLTIKARPMADGYVKAKTGDSTTDTVYNNWYKSVYLPNSLEHHHHHH | failed
19 | MANLAASTCLYSWLLVLLLSSVSAIIDEDTQVYIVYMGSLSSRADYIPTSDHMSILQQVTGESSIEGRLVRSYKRSFNGFAARLTESERTLIAEIEGVVSVFPNKILQLHTTTSWDFMGVKEGKNTKRNLAIESDTIIGVIDTGIWPESKSFSDKGFGPPPKKWKGVCSGGKNFTCNNKLIGARDYTSEGTRDTSGHGTHTASTAAGNAVKDTSFFGIGNGTVRGGVPASRIAAYKVCTDSGCSSEALLSSFDDAIADGVDLITISIGFQFPSIFEDDPIAIGAFHAMAKGILTVSSAGNSGPKPTTVSHVAPWIFTVAASTTNRGFITKVVLGNGKTLAGRSVNAFDMKGKKYPLVYGKSAASSACDAKTAALCAPACLNKSRVKGKILVCGGPSGYKIAKSVGAIAIIDKSPRPDVAFTHHLPASGLKAKDFKSLVSYIESQDSPQAAVLKTETIFNRTSPVIASFSSRGPNTIAVDILKPDITAPGVEILAAFSPNGEPSEDDTRRVKYSVFSGTSMACPHVAGVAAYVKTFYPRWSPSMIQSAIMTTAWPVKAKGRGIASTEFAYGAGHVDPMAALNPGLVYELDKADHIAFLCGMNYTSKTLKIISGDTVKCSKKNKILPRNLNYPSMSAKLSGTDSTFSVTFNRTLTNVGTPNSTYKSKVVAGHGSKLSIKVTPSVLYFKTVNEKQSFSVTVTGSDVDSEVPSSANLIWSDGTHNVRSPIVVYIMVVDEA | failed
20 | MANLPTVLVTGASGRTGQIVYKKLKEGSDKFVAKGLVRSAQGKEKIGGEADVFIGDITDADSINPAFQGIDALVILTSAVPKMKPGFDPTKGGRPEFIFEDGQYPEQVDWIGQKNQIDAAKVAGVKHIVVVGSMGGTNPDHPLNKLGNGNILVWKRKAEQYLADSGTPYTIIRAGGLLDKEGGVRELLVGKDDELLQTDTKTVPRADVAEVCIQALLFEEAKNKAFDLGSKPEGTSTPTKDFKALFSQVTSRF | not failed
